Patent US20260132182A1 (published 2026)
Starred links: 1 amine or outer side, 2 acyl side, 3 side chain; linkers in the order of their positions; H or OH if unused. Non-standard residues stand in square brackets, D forms with d. Groups on a side chain read outwards from the residue. *: point of attachment. Hexadecanoyl(16-SO3H) = O=C(CCCCCCCCCCCCCCCS(=O)(=O)O)*; C20 diacid = O=C(O)CCCCCCCCCCCCCCCCCCC(=O)*; C18 diacid = O=C(O)CCCCCCCCCCCCCCCCC(=O)*; C16 diacid = O=C(O)CCCCCCCCCCCCCCC(=O)*; γGlu = O=C(O)[C@H](CCC(=O)[*:2])N[*:1]; C14 diacid = O=C(O)CCCCCCCCCCCCC(=O)*; εLys = N[C@@H](CCCCN[*:1])C(=O)[*:2]; AEEA = NCCOCCOCC(=O)O; Aib = CC(C)(N)C(=O)O; Ahx = NCCCCCC(=O)O

T1: human amylin-3 (a) receptor (human, UniProt P30988 25-474; O60896 24-148)
T1 sequence (looked up) 1: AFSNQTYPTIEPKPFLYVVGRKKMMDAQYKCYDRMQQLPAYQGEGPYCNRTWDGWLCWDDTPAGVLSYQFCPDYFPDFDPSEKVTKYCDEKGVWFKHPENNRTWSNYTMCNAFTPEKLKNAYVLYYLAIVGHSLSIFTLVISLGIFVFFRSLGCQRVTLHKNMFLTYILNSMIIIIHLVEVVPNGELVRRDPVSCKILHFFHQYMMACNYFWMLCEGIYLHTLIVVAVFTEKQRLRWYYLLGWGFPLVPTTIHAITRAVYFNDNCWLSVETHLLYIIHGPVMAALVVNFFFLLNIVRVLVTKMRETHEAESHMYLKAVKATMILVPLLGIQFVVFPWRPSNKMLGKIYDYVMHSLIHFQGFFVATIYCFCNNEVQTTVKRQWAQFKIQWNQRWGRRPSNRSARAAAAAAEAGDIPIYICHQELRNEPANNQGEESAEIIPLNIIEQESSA
T1 sequence (looked up) 2: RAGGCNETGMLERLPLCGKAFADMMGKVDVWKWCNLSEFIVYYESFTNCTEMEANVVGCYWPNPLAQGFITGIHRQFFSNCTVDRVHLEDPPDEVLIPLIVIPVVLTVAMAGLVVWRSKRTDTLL

B1: Compound 0578 (peptide)
peptide: H[Aib]EGTFTSDVSK([AEEA-AEEA-γGlu-C16 diacid])YLEEQAARKFIAWLVRGRQEASELSTAALGRLSAELHELATLPRTETGSGSP-NH2
modifications: not fully specified (residue 21)
B2: Compound 0009 (peptide)
peptide: H[Aib]EGTFTSDVSSYLEGQAAREFIAWLVRGK([AEEA-AEEA-γGlu-C18 diacid])GEGEGEEASELSTAALGRLSAELHELATLPRTETGSGSP-NH2
B3: Compound 0581 (peptide)
peptide: H[Aib]EGTFTSDVSSYLEEQAARK([AEEA-AEEA-γGlu-C20 diacid])FIEWLVRGASELSTAALGRLSAELHELATLPRTETGSGSP-NH2
B4: Compound 0655 (peptide)
peptide: H[Aib]EGTFTSDVSSYLEEQAAREFIAWLVRGRK([AEEA-AEEA-γGlu-17‑(1H-tetrazol-5-yl)heptadecanoyl])GGGGEASELSTAALGRLSAELHELATLPRTETGSGSP-NH2
B5: Compound 0648 (peptide)
peptide: HWEGTFTSDVSSYLEEQAAREFIAWLVRGRK([AEEA-AEEA-γGlu-C18 diacid])GGGGEASELSTAALGRLSAELHELATLPRTETGSGSP-NH2
B6: Compound 0630 (peptide)
peptide: H[Aib]EGTFTSDVSK([Ahx-γGlu-γGlu-C16 diacid])YLEEQAARK([Ahx-γGlu-γGlu-C16 diacid])FIEWLVRGAAEASELSTAALGRLSAELHELATLPRTETGSGSP-NH2
B7: Compound 0629 (peptide)
peptide: H[Aib]EGTFTSDVSK([AEEA-AEEA-γGlu-C16 diacid])YLEEQAARKFIEWLVRGAAEASELSTAALGRLSAELHELATLPRTETGSGSP-NH2
modifications: not fully specified (residue 21)
B8: Compound 0637 (peptide)
peptide: H[Aib]EGTFTSDVSSYLEEQAAREFIAWLVRGRK([AEEA-AEEA-γGlu-C18 diacid])GGGGSGGGEASELSTAALGRLSAELHELATLPRTETGSGSP-NH2
B9: Compound 0634 (peptide)
peptide: H[Aib]EGTFTSDVSK([γGlu-γGlu-γGlu-γGlu-C16 diacid])YLEEQAARK([γGlu-γGlu-γGlu-γGlu-C16 diacid])FIAWLVRGRGEASELSTAALGRLSAELHELATLPRTETGSGSP-NH2
B10: Compound 0633 (peptide)
peptide: H[Aib]EGTFTSDVSSYLEEQAARK([γGlu-γGlu-γGlu-γGlu-C20 diacid])FIAWLVRGRGGGGGEASELSTAALGRLSAELHELATLPRTETGSGSP-NH2
B11: Compound 0071 (peptide)
peptide: H[Aib]EGTFTSDVSSYLEGQAAK([AEEA-AEEA-γGlu-C18 diacid])EFIAWLVRGRGGQEPGQEPK([AEEA-AEEA-γGlu-C18 diacid])EASELSTAALGRLSAELHELATLPRTETGSGSP-NH2
B12: Compound 0057 (peptide)
peptide: H[Aib]EGTFTSDVSSYLEGQAAK([AEEA-AEEA-γGlu-C18 diacid])EFIAWLVRGRGGQEK([AEEA-AEEA-γGlu-C18 diacid])GQEPEASELSTAALGRLSAELHELATLPRTETGSGSP-NH2
B13: Compound 0638 (peptide)
peptide: H[Aib]EGTFTSDVSSYLEEQAAREFIAWLVRGRK([AEEA-AEEA-γGlu-C20 diacid])GGGGSGGGEASELSTAALGRLSAELHELATLPRTETGSGSP-NH2
B14: Compound 0639 (peptide)
peptide: H[Aib]EGTFTSDVSSYLEEQAARK([AEEA-AEEA-γGlu-C18 diacid])FIAWLVRGRGGGGGEASELSTAALGRLSAELHELATLPRTETGSGSP-NH2
B15: Compound 0656 (peptide)
peptide: H[Aib]EGTFTSDVSSYLEEQAAREFIAWLVRGRK([εLys-εLys-γGlu-C18 diacid])GGGGEASELSTAALGRLSAELHELATLPRTETGSGSP-NH2
B16: Compound 0654 (peptide)
peptide: H[Aib]EGTFTSDVSSYLEEQAAREFIAWLVRGRK([AEEA-AEEA-γGlu-Hexadecanoyl(16-SO3H)])GGGGEASELSTAALGRLSAELHELATLPRTETGSGSP-NH2
B17: Compound 0635 (peptide)
peptide: H[Aib]EGTFTSDVSK([AEEA-AEEA-γGlu-C14 diacid])YLEEQAARKFIAWLVRGRK([AEEA-AEEA-γGlu-C14 diacid])GGEASELSTAALGRLSAELHELATLPRTETGSGSP-NH2
modifications: not fully specified (residue 21)
B18: Compound 0575 (peptide)
peptide: H[Aib]EGTFTSDVSK([AEEA-AEEA-γGlu-C16 diacid])YLEEQAARK([AEEA-AEEA-γGlu-C16 diacid])FIAWLVRGRQEGGGGGASELSTAALGRLSAELHELATLPRTETGSGSP-NH2
B19: Compound 0577 (peptide)
peptide: H[Aib]EGTFTSDVSK([AEEA-AEEA-γGlu-C16 diacid])YLEEQAARKFIEWLVRGRGEASELSTAALGRLSAELHELATLPRTETGSGSP-NH2
modifications: not fully specified (residue 21)
B20: Compound 0658 (peptide)
peptide: H[Aib]EGTFTSDVSSYLEEQAAREFIAWLVRGRK([Ahx-Ahx-γGlu-C18 diacid])GGGGEASELSTAALGRLSAELHELATLPRTETGSGSP-NH2
B21: Compound 0657 (peptide)
peptide: H[Aib]EGTFTSDVSSYLEEQAAREFIAWLVRGRK([εLys-εLys-γGlu-C20 diacid])GGGGEASELSTAALGRLSAELHELATLPRTETGSGSP-NH2
B22: Compound 0580 (peptide)
peptide: H[Aib]EGTFTSDVSSYLEEQAARK([AEEA-AEEA-γGlu-C20 diacid])FIAWLVRGGASELSTAALGRLSAELHELATLPRTETGSGSP-NH2
B23: Compound 0640 (peptide)
peptide: H[Aib]EGTFTSDVSK([AEEA-AEEA-γGlu-C18 diacid])YLEEQAAREFIAWLVRGRGGGGGEASELSTAALGRLSAELHELATLPRTETGSGSP-NH2
B24: Compound 0632 (peptide)
peptide: H[Aib]EGTFTSDVSK([γGlu-γGlu-γGlu-γGlu-C20 diacid])YLEEQAAREFIEWLVRGAAEASELSTAALGRLSAELHELATLPRTETGSGSP-NH2
B25: Compound 0576 (peptide)
peptide: H[Aib]EGTFTSDVSK([AEEA-AEEA-γGlu-C16 diacid])YLEEQAARKFIEWLVRGRGEGGGGGASELSTAALGRLSAELHELATLPRTETGSGSP-NH2
modifications: not fully specified (residue 21)

Target: human GLP-1 receptor (human, UniProt P43220 24-463)
Assay: cell-based or functional assay

Going from B1 to B2, the “Human GLP-1R potency [EC50 (pM)]” value rises from 2.5 pM to 7.9 pM.

Compared with B3, B4 is lower in “Human GLP-1R potency [EC50 (pM)]” value: 17 pM for the first, 3 pM for the second.

Compared with B5, B6 is lower in “Human GLP-1R potency [EC50 (pM)]” value: 17 pM for the first, 7.1 pM for the second.

Going from B7 to B8, the “Human GLP-1R potency [EC50 (pM)]” value falls from 7.9 pM to 1.9 pM.

Going from B9 to B10, the “Human GLP-1R potency [EC50 (pM)]” value rises from 14.7 pM to 28.2 pM.

First: B11
Second: B12
The “Human GLP-1R potency [EC50 (pM)]” value of the first is higher: 69.4 pM for the first, 59 pM for the second.

Going from B13 to B14, the “Human GLP-1R potency [EC50 (pM)]” value falls from 4.6 pM to 1.5 pM.

First: B15
Second: B16
The “Human GLP-1R potency [EC50 (pM)]” value of the first is higher: 4.1 pM for the first, 2.9 pM for the second.

First: B17
Second: B18
The “Human GLP-1R potency [EC50 (pM)]” value of the first is higher: 7.3 pM for the first, 5.6 pM for the second.

Going from B19 to B20, the “Human GLP-1R potency [EC50 (pM)]” value falls from 5.6 pM to 3.1 pM.

First: B21
Second: B22
The “Human GLP-1R potency [EC50 (pM)]” value of the first is higher: 9.9 pM for the first, 7.4 pM for the second.

First: B23
Second: B24
The “Human GLP-1R potency [EC50 (pM)]” value of the first is lower: 2.3 pM for the first, 18.8 pM for the second.

With B25 the “Human GLP-1R potency [EC50 (pM)]” value was 2.9 pM.

Target: T1, human amylin-3 (a) receptor
Assay: cell-based or functional assay

First: B1
Second: B2
The “Human AmyR3 potency [EC50 (pM)]” value of the first is lower: 26.9 pM for the first, 49.5 pM for the second.

First: B3
Second: B4
The “Human AmyR3 potency [EC50 (pM)]” value of the first is higher: 26.4 pM for the first, 11.4 pM for the second.

Compared with B5, B6 is higher in “Human AmyR3 potency [EC50 (pM)]” value: 9.2 pM for the first, 110 pM for the second.

Compared with B7, B8 is lower in “Human AmyR3 potency [EC50 (pM)]” value: 97.5 pM for the first, 14.1 pM for the second.

Going from B9 to B10, the “Human AmyR3 potency [EC50 (pM)]” value falls from 59.4 pM to 5.3 pM.

Going from B11 to B12, the “Human AmyR3 potency [EC50 (pM)]” value rises from 159 pM to 165 pM.

Going from B13 to B14, the “Human AmyR3 potency [EC50 (pM)]” value falls from 6.9 pM to 4.6 pM.

First: B15
Second: B16
The “Human AmyR3 potency [EC50 (pM)]” value of the first is higher: 13.3 pM for the first, 11.3 pM for the second.

First: B17
Second: B18
The “Human AmyR3 potency [EC50 (pM)]” value of the first is higher: 78.9 pM for the first, 8.3 pM for the second.

Compared with B19, B20 is lower in “Human AmyR3 potency [EC50 (pM)]” value: 19.1 pM for the first, 11 pM for the second.

First: B21
Second: B22
The “Human AmyR3 potency [EC50 (pM)]” value of the first is higher: 10.4 pM for the first, 9.3 pM for the second.

Going from B23 to B24, the “Human AmyR3 potency [EC50 (pM)]” value rises from 6 pM to 148 pM.

In the case of B25, the “Human AmyR3 potency [EC50 (pM)]” value is reported as 10.1 pM.
